According to PMC4255253:

Biological target: human inducible heat shock protein 70 (hHsp70), full-length, non-tagged (human)
Experiment: BLI; biotinylated hHsp70 or DnaK immobilised on streptavidin biosensor tips, analyte in PBS (hHsp70 200-500 nM; hHsp40 20-50 nM; DnaK 200-500 nM), association 600 s, dissociation 600 s, 1:1 model

Chain of human inducible heat shock protein 70 (hHsp70), full-length, non-tagged (human) (P0DMV8 whole entry E110D): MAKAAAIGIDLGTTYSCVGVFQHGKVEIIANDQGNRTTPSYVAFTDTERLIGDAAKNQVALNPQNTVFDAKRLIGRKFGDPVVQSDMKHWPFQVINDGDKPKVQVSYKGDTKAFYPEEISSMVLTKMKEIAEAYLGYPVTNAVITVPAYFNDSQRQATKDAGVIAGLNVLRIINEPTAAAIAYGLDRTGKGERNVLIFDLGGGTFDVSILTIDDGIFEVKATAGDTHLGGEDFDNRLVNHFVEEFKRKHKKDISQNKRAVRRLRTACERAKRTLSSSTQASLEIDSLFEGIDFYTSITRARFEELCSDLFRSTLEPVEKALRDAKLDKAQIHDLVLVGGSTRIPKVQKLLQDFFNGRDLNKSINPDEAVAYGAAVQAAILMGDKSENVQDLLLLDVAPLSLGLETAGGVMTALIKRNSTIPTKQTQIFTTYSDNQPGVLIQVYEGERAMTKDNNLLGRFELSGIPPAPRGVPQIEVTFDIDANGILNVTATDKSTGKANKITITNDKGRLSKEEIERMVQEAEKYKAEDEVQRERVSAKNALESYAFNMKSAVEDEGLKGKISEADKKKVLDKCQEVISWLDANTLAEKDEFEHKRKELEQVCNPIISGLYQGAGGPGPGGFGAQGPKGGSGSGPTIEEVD

Kd: 0.52 nM
Substance: human heat shock protein 40 (hHsp40) (from UniProt P25685 1-340) (natural protein)
